From patent US20070190024A1 (INSERM INSTITUT NATIONAL DE LA SANTE ET DE LA RECH, published 2007)
Changes are numbered by the printed parent chain. Names and notes keep the numbering of the source.

Assays:
[1] = target: T1, murine high affinity IL-11 receptor complex (IL-11Rα with gp130) on 7TD1 cells (Class 2 sites) (mouse, UniProt Q64385 24-432; Q00560 23-917); experiment: cell-based or functional assay
T1 sequence (looked up) 1: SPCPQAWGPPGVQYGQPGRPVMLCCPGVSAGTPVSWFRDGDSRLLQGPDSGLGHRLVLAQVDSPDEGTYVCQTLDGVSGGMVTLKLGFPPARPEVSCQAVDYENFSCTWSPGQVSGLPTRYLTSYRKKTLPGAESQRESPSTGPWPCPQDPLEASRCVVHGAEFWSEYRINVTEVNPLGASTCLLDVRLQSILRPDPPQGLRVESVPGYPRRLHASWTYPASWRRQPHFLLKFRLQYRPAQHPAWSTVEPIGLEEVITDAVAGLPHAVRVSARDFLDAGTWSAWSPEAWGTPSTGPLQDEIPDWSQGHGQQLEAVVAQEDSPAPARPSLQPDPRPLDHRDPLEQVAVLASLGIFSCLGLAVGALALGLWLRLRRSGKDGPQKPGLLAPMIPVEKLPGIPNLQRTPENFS
T1 sequence (looked up) 2: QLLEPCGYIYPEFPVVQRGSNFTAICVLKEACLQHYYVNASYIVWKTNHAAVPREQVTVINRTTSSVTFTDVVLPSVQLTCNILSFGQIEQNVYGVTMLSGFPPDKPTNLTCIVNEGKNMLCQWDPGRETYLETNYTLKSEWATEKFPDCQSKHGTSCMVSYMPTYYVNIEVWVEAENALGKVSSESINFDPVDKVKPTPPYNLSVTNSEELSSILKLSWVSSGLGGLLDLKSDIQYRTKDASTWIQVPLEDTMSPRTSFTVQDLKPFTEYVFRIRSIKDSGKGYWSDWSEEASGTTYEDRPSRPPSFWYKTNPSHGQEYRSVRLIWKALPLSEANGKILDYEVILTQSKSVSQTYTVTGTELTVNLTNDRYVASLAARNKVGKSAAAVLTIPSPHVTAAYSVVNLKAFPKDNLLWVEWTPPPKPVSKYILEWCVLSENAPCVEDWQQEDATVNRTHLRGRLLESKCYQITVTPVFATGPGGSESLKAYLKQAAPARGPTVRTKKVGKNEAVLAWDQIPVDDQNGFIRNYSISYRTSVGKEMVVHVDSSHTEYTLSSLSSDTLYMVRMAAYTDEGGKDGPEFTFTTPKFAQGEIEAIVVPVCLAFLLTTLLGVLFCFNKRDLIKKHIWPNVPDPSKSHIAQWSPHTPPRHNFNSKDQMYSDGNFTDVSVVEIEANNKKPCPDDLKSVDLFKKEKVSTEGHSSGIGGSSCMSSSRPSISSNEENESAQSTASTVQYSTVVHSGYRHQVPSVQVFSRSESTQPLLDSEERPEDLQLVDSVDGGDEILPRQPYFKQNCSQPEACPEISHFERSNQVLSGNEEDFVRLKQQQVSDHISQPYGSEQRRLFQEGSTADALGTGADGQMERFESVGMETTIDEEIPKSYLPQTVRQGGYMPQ

[2] = target: T2, fusion protein of human IL-11R and IL-2 (IL-11R-IL-2) (human, UniProt Q14626 23-370; P60568 21-153, limits assumed); experiment: SPR (BiaCore 2000), IL-11R-IL-2 amine-coupled to a CM5 chip
T2 construct: Amine-coupled to a CM5 chip at about 500 RU; also called human IL-11Rα-IL-2 fusion protein; recombinant human IL-11R-IL-2
Protocol: (§1) These experiments were performed with a BiaCore 2000 optical biosensor (BiaCore, Uppsala, Sweden). A fusion protein of human IL-11R and IL-2 (IL-11R-IL-2) [Blanc et al. (2000). Monoclonal antibodies against the human interleukin-11 receptor alpha-chain (IL-11Ralpha) and their use in studies of human mononuclear cells. J. Immunol. Methods 241, 43-59, the content of which is herein incorporated by reference] was coupled through primary amino groups to a carboxymethyl dextran flow cell (CM5) at a low immobilisation level (about 500 RU per flow cell) compatible with kinetic binding studies. Subsequent binding of parental FPΔIL-11 or mutein was carried out in Hepes-buffered saline (pH 7.4) at a flow rate of 10 μl/minute at room temperature.
(§2) In order to find out if mutagenesis and associated conformational change of H/V-D/A have an effect on its interaction with IL-11Rα, the association and dissociation kinetic constants (kₒₙ, koff) describing parent IL-11 and H/V-D/A mutein binding to human IL-11Rα were determined by surface plasmon resonance biosensor analysis using dextran-immobilized purified human IL-11Rα-IL-2 [Blanc et al. (2000), cited supra] fusion protein as matrix.

[3] = target: T3, human IL-11 receptor (human IL-11Rα and human gp130) on B13Rα1 cells (human, UniProt Q14626 23-422; P40189 23-918); experiment: Scatchard analysis, 32P-labelled ligand on B13Rα1 cells; unlabelled competitor H/V-D/A
T3 construct: whole, on cells; also called Ba/F3 cells stably transfected with human gp130 and hIL-11Rα; Ba/F3 cells co-transfected with human IL-11Rα and human gp130
T3 sequence (looked up) 1: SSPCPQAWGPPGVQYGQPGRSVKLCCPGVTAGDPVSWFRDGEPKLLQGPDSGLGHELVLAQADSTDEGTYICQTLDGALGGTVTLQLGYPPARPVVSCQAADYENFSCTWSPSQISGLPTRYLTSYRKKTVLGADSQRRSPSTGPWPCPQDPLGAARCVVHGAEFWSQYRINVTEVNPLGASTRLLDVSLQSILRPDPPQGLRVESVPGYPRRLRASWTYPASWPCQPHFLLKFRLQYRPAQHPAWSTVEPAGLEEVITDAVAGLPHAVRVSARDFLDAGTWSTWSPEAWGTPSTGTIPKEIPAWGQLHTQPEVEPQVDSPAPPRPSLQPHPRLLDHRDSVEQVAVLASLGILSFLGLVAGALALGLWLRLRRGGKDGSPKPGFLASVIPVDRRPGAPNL
T3 sequence (looked up) 2: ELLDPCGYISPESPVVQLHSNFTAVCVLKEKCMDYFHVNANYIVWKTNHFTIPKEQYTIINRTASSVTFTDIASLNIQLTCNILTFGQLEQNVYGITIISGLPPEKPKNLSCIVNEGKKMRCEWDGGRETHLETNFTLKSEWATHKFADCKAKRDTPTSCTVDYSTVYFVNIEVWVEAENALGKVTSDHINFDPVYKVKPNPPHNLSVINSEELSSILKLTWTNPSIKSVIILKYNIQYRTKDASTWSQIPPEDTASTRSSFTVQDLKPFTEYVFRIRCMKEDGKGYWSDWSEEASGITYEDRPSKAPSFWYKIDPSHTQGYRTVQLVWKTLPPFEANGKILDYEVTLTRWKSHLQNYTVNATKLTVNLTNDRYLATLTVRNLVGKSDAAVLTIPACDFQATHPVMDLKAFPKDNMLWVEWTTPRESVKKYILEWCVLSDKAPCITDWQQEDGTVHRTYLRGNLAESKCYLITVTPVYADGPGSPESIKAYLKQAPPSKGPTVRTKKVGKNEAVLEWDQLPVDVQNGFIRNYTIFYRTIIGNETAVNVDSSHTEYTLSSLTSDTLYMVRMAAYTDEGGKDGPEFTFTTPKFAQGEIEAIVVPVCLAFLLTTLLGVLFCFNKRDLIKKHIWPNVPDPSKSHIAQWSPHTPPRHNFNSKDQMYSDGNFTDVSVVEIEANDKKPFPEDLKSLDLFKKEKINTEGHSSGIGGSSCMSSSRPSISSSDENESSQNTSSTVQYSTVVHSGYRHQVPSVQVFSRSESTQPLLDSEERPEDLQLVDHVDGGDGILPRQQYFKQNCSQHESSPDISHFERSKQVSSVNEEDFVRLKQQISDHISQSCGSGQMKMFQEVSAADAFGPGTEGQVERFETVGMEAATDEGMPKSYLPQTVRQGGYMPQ

[4] = target: T3, human IL-11 receptor (human IL-11Rα and …); experiment: Scatchard analysis, 32P-labelled ligand on B13Rα1 cells; unlabelled competitor FPΔIL-11
[5] = target: T4, murine IL-11Rα on 7TD1 cells (Class 1, low affinity sites; isolated IL-11Rα chains) (mouse, UniProt Q64385 24-432); experiment: Scatchard analysis, 32P-labelled ligand on 7TD1 cells, Class 1 sites; unlabelled competitor FPΔIL-11
T4 construct: whole, on cells; also called 7TD1 Class 1 sites
T4 sequence (looked up): T1 sequence (looked up) 1
Protocol: (§3) Binding of ³²P-H/V-D/A on 7TD1 cells was carried out as described for the parental ³²P-FPΔIL-11 on B13Rα1 cells by Wang et al [Wang et al. (2002), cited supra, and incorporated by reference]. 7TD1 cells ([…]) were pre-incubated in culture medium lacking growth factor for 2 h and were washed 3 times with phosphate-buffered saline, pH 7.4 (PBS). For binding studies, radiolabelled H/V-D/A was added to cells at the indicated concentration in PBS containing 0.5% bovine serum albumin. The mixture was incubated at 4° C. for the appropriate time and bound radiolabelled H/V-D/A was separated from the free radioactivity by centrifugation at 3000 g for 1 min through a 0.2 ml layer of a mixture of 40% dioctyl phthalate and 60% dibutyl phthalate (Janssen Chimica, Beerse, Belgium). After quick freezing, the tip of each tube containing the cell pellet was cut-off and radioactivity was counted in a Beckman β-counter. Non-specific binding was determined by incubating cells with radiolabelled H/V-D/A in the presence of a 200-fold molar excess of unlabelled H/V-D/A. […]

[6] = target: T1, murine high affinity IL-11 receptor …; experiment: Scatchard analysis, 32P-labelled ligand on 7TD1 cells, Class 2 sites; unlabelled competitor FPΔIL-11
Protocol: as §3

[7] = target: T2, fusion protein of human IL-11R and IL-2 …; experiment: SPR, immobilized human IL-11Rα-IL-2
Protocol: as §1, §2

[8] = target: T4, murine IL-11Rα on 7TD1 cells (Class 1, …); experiment: Scatchard analysis, 32P-labelled ligand on 7TD1 cells, low affinity sites
Protocol: as §3

[9] = target: T4, murine IL-11Rα on 7TD1 cells (Class 1, …); experiment: Scatchard analysis, 32P-labelled ligand on 7TD1 cells, Class 1 sites; unlabelled competitor H/V-D/A
Protocol: as §3

[10] = target: T1, murine high affinity IL-11 receptor …; experiment: Scatchard analysis, 32P-labelled ligand on 7TD1 cells, Class 2 sites; unlabelled competitor H/V-D/A
Protocol: as §3

B1: FPΔIL-11 (parental, non-mutated recombinant human IL-11 with Flag tag and phosphorylation site, deleted of the first 31 N-terminal amino acids) (ligand)
chain: MDYKDDDDKEGRRASVASPDPRAELDSTVLLTRSLLADTRQLAAQLRDKFPADGDHNLDSLPTLAMSAGALGALQLPGVLTRLRADLLSYLRHVQWLRRAGGSSLKTLEPELGTLQARLDRLLRRLQLLMSRLALPQPPPDPPAPPLAPPSSAWGGIRAAHAILGGLHLTLDWAVRGLLLLKTRL
notes: Produced in E. coli BL21(DE3); monomer by gel filtration; in SPR it was unlabelled; also called parental FPΔIL-11; parent IL-11
**Q.** B1 was tested. Which “concentration required to induce half-maximal proliferation (EC50) of 7TD1 cells” value [1] did it give?
**A.** 15 ng/mL

**Q.** And the Kd [2]?
**A.** 165 nM

**Q.** And the koff [2]?
**A.** 0.000975 s⁻¹

**Q.** What about the kon [2] of the same binder?
**A.** 5900 M⁻¹ s⁻¹

**Q.** What about the Kd [3] of the same binder?
**A.** 0.4 nM

**Q.** What about the Kd [4] of the same binder?
**A.** 0.44 nM

**Q.** What about the Kd [5] of the same binder?
**A.** 7.2 nM

**Q.** And the Kd [6]?
**A.** 0.65 nM

B2: H/V-D/A mutein (FPΔIL-11 with H182V and D186A) (ligand)
chain: B1 chain with H168V, D172A
notes: in SPR it was unlabelled; also called H182V+D186A; mutant FPΔIL-11
**Q.** What does the source list for B2?
**A.** concentration required to induce half-maximal proliferation (EC50) of 7TD1 cells [1]: 0.03 ng/mL; fold lower EC50 of 7TD1 proliferation than wild-type IL-11 [1]: 400 fold; fold higher koff than parental FPΔIL-11 [7]: 14 fold; fold higher kon than parental FPΔIL-11 [7]: 35 fold; fold lower Kd than FPΔIL-11 [7]: 3 fold; fold higher affinity than FPΔIL-11 [8]: ~3 fold; Kd [3]: 0.71 nM; Kd [4]: 0.72 nM; Kd [9]: 2.7 nM; Kd [10]: 0.6 nM

B3: commercial recombinant human IL-11 (rhIL-11, R&D) (ligand)
chain: PGPPPGPPRVSPDPRAELDSTVLLTRSLLADTRQLAAQLRDKFPADGDHNLDSLPTLAMSAGALGALQLPGVLTRLRADLLSYLRHVQWLRRAGGSSLKTLEPELGTLQARLDRLLRRLQLLMSRLALPQPPPDPPAPPLAPPSSAWGGIRAAHAILGGLHLTLDWAVRGLLLLKTRL
**Q.** With B3 as the binder, how does the “concentration required to induce half-maximal proliferation (EC50) of 7TD1 cells” value [1] read?
**A.** 15 ng/mL
